From patent US20210348144 (published 2021)

B1: crRNA-4 HPRT 38486-S-23 ; HPRT 38486-S protospacer (DNA equivalent of crRNA-4 spacer) (ssRNA ; dsDNA)
RNA: UAAUUUCUACUAAGUGUAGAUUUGUAGGAUAUGCCCUUGACUAU
DNA 1: TTGTAGGATATGCCCTTGACTAT
DNA 2: ATAGTCAAGGGCATATCCTACAA
B2: crRNA-2 HPRT 38094-S-23 ; HPRT 38094-S protospacer (DNA equivalent of crRNA-2 spacer) (ssRNA ; dsDNA)
RNA: UAAUUUCUACUAAGUGUAGAUAUAGUCUUUCCUUGGGUGUGUUA
DNA 1: ATAGTCTTTCCTTGGGTGTGTTA
DNA 2: TAACACACCCAAGGAAAGACTAT

Tests used:
LbCas12a G146R [1] = molecular target: T1, LbCas12a G146R (Lachnospiraceae bacterium ND2006); test: cell_activity; WT 15.77; 50 nM RNP, HEK293, T7EI 48 h; PAM of site not stated
LbCas12a E981V [2] = molecular target: T2, LbCas12a E981V (Lachnospiraceae bacterium ND2006); test: as above
LbCas12a R182V [3] = molecular target: T3, LbCas12a R182V (Lachnospiraceae bacterium ND2006); test: as above
LbCas12a T152K [4] = molecular target: T4, LbCas12a T152K (Lachnospiraceae bacterium ND2006); test: as above
[5] = molecular target: T5, LbCas12a G146R/R182V/E795Q (RVQ) (Lachnospiraceae bacterium ND2006); test: as above
LbCas12a E795Q [6] = molecular target: T6, LbCas12a E795Q (Lachnospiraceae bacterium ND2006); test: as above
LbCas12a S1020E [7] = molecular target: T7, LbCas12a S1020E (Lachnospiraceae bacterium ND2006); test: as above
LbCas12a P799V [8] = molecular target: T8, LbCas12a P799V (Lachnospiraceae bacterium ND2006); test: as above
LbCas12a K1121D [9] = molecular target: T9, LbCas12a K1121D (Lachnospiraceae bacterium ND2006); test: as above
LbCas12a W890A [10] = molecular target: T10, LbCas12a W890A (Lachnospiraceae bacterium ND2006); test: as above
LbCas12a G146R [11] = molecular target: T1, LbCas12a G146R; test: cell_activity; WT 7.70; 50 nM RNP, HEK293, T7EI 48 h; PAM of site not stated
LbCas12a E981V [12] = molecular target: T2, LbCas12a E981V; test: as above
LbCas12a R182V [13] = molecular target: T3, LbCas12a R182V; test: as above
LbCas12a T152K [14] = molecular target: T4, LbCas12a T152K; test: as above
[15] = molecular target: T5, LbCas12a G146R/R182V/E795Q (RVQ); test: as above
LbCas12a E795Q [16] = molecular target: T6, LbCas12a E795Q; test: as above
LbCas12a S1020E [17] = molecular target: T7, LbCas12a S1020E; test: as above
LbCas12a P799V [18] = molecular target: T8, LbCas12a P799V; test: as above
LbCas12a K1121D [19] = molecular target: T9, LbCas12a K1121D; test: as above
LbCas12a W890A [20] = molecular target: T10, LbCas12a W890A; test: as above

| Binder | activity (LbCas12a G146R [1]) | activity (LbCas12a E981V [2]) | activity (LbCas12a R182V [3]) | activity (LbCas12a T152K [4]) | activity [5] | activity (LbCas12a E795Q [6]) | activity (LbCas12a S1020E [7]) | activity (LbCas12a P799V [8]) | activity (LbCas12a K1121D [9]) | activity (LbCas12a W890A [10]) | activity (LbCas12a G146R [11]) | activity (LbCas12a E981V [12]) | activity (LbCas12a R182V [13]) | activity (LbCas12a T152K [14]) | activity [15] | activity (LbCas12a E795Q [16]) | activity (LbCas12a S1020E [17]) | activity (LbCas12a P799V [18]) | activity (LbCas12a K1121D [19]) | activity (LbCas12a W890A [20]) |
| --- | --- | --- | --- | --- | --- | --- | --- | --- | --- | --- | --- | --- | --- | --- | --- | --- | --- | --- | --- | --- |
| B1 | 32.2 % editing | 26.4 % editing | 29.1 % editing | 18.6 % editing | 51.5 % editing | 26.8 % editing | 7.6 % editing | 30.7 % editing | 6.87 % editing | 4.27 % editing | – | – | – | – | – | – | – | – | – | – |
| B2 | – | – | – | – | – | – | – | – | – | – | 16.2 % editing | 13.8 % editing | 10.4 % editing | 20.9 % editing | 32.8 % editing | 9.77 % editing | 4.27 % editing | 16.7 % editing | 3.65 % editing | 3.8 % editing |
